Results reported in patent US20250011363A1, “OPTIMIZED SHORTENED PEPTIDE THAT BINDS TO ACETYLCHOLINE RECEPTOR, AND USE THEREOF” (SKINMED CO., LTD., priority 2021, published 2025).

These binders were tested against acetylcholine receptor (assay: SPR, peptide at 10 uM, AchR immobilized).

Binder | Binding affinity [RU]
KRATFR [6mer-1-730] | 13
RRAAVR [6mer-1-732] | 26
RRIKAR [6mer-1-731] | 18

Each binder was assayed against acetylcholine receptor (assay: SPR, AchR immobilized on CM5 chip, peptide 10 µM).

Binder | Binding affinity (RU)
RGVSKR [6mer-2-219] | 153
KGILKK [6mer-2-216] | 126
RLLCKR [6mer-2-226] | 154
KVYSKR [6mer-2-220] | 135
RSQQRK [6mer-2-208] | 128
KSRTKR [6mer-2-203] | 135
RLFLKR [6mer-2-224] | 148
RRVQKR [6mer-2-204] | 142
KLFQKK [6mer-2-217] | 135
KRLLRR [6mer-2-225] | 145
KWQLRR [6mer-2-212] | 148
KSILRR [6mer-2-213] | 142
RLYYRR [6mer-2-215] | 123
KQVRKK [6mer-2-221] | 153
KWQYKK [6mer-2-206] | 148
RVVYRK [6mer-2-222] | 127
RLIYKK [6mer-2-202] | 122
RLYYRK [6mer-2-209] | 148
KSFQRK [6mer-2-205] | 147
RWQSKK [6mer-2-229] | 127
KGQCKK [6mer-2-228] | 141
KLQRRK [6mer-2-227] | 147
KQLTRR [6mer-2-223] | 142
RGLSRR [6mer-2-211] | 135
RSQSRR [6mer-2-210] | 128
RWRSRK [6mer-2-214] | 139
KWVSKR [6mer-2-207] | 153
KGVSKK [6mer-2-218] | 147
